Read-outs that look alike come from different tables or passages of the source.
Key:
[1] = molecular target: human SETD3 (residues 1-497) (human) (UniProt Q86TU7); test: ITC
[2] = molecular target: human SETD3 (residues 1-497) (human) (UniProt Q86TU7); test: ITC; remark: listed apart in the source

Kd [1] | Kd [2] | Substance
3.1 µM | 4.9 µM | β-actin peptide, residues 66-81, with 4-pyridylalanine at position 73 (βA-4PyrAla73) (from UniProt P60709 66-81)
44.4 µM | 48.5 µM | β-actin peptide, residues 66-81, with 3-pyridylalanine at position 73 (βA-3PyrAla73) (from UniProt P60709 66-81)
0.8 µM | 4 µM | β-actin peptide, residues 66-81, with β-triazolylalanine at position 73 (βA-βTriaA73) (from UniProt P60709 66-81)
7.2 µM | 39.2 µM | β-actin peptide, residues 66-81, with ornithine at position 73 (βA-Orn73) (from UniProt P60709 66-81)
